± gives the standard error. For some of these results: Fewer inactive variants are shown than the library holds.
B1: glmS ribozyme (parent)
chain: AUAAAAGCGCCAGAACUACAGAAAUGUAGUUGACGAGGAGGAGGUUUAUCGAAUUUUCGGCGGAUGCCUCCAAA

Experiments:
Conditions in all cases: with glucosamine-6-phosphate
glucosamine-6-phosphate [1] = variants of: B1; experiment: kcat; higher = faster cleavage; RNA array
Method in brief: (§1)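 On sequenced MiSeq chips, barcoded ribozyme variants were made in situ by E. coli RNA polymerase and followed at 37 °C through a hybridised Cy3 probe. Glucosamine-6-phosphate was flowed in at 40 μM to 10 mM in HEPES/KCl/Mg(OAc)2 buffer. Exponential fits to normalised per-tile medians gave kobs, and weighted Michaelis–Menten fits gave kcat and KM.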

glucosamine-6-phosphate [2] = variants of: B1; experiment: KM; higher = weaker cofactor use; RNA array
Method in brief: as §1

glucosamine-6-phosphate [3] = variants of: B1; experiment: self-cleavage kobs at 40 uM GlcN6P; higher = faster cleavage; RNA array
Method in brief: as §1

glucosamine-6-phosphate [4] = variants of: B1; experiment: self-cleavage kobs at 2500 uM GlcN6P; higher = faster cleavage; RNA array
Method in brief: as §1

glucosamine-6-phosphate [5] = variants of: B1; experiment: self-cleavage kobs at 10000 uM GlcN6P; higher = faster cleavage; RNA array
Method in brief: as §1

glucosamine-6-phosphate [6] = variants of: B1; experiment: self-cleavage kobs at 160 uM GlcN6P; higher = faster cleavage; RNA array
Method in brief: as §1

glucosamine-6-phosphate [7] = variants of: B1; experiment: self-cleavage kobs at 640 uM GlcN6P; higher = faster cleavage; RNA array
Method in brief: as §1

Row | Variant | kcat (glucosamine-6-phosphate [1]) [s⁻¹] | KM (glucosamine-6-phosphate [2]) [mM] | self-cleavage kobs at 40 uM GlcN6P (glucosamine-6-phosphate [3]) [s⁻¹] | self-cleavage kobs at 2500 uM GlcN6P (glucosamine-6-phosphate [4]) [s⁻¹] | self-cleavage kobs at 10000 uM GlcN6P (glucosamine-6-phosphate [5]) [s⁻¹] | self-cleavage kobs at 160 uM GlcN6P (glucosamine-6-phosphate [6]) [s⁻¹] | self-cleavage kobs at 640 uM GlcN6P (glucosamine-6-phosphate [7]) [s⁻¹]
1 | A15G A33U | 0.0001 ± 9.2e-06 | 2.53 ± 0.74 | < 1e-05 | 5.25e-05 ± 7e-06 | 7.91e-05 ± 6.4e-06 |  | 
2 | G13U A42G | 0.00137 ± 0.00022 | 1.68 ± 0.46 | 2.35e-05 ± 1.1e-05 | 0.00082 ± 0.00017 | 0.00117 ± 0.00027 | 0.000152 ± 3.8e-05 | 
3 | A15C C70G | 7.11e-05 ± 7.6e-06 |  |  | 8.13e-05 ± 1e-05 | 5.86e-05 ± 9.3e-06 | 3.9e-05 ± 9.7e-06 | 6.25e-05 ± 8.5e-06
4 | G13U C71G | 5.14e-05 ± 2.7e-06 | 0.155 ± 0.074 |  | 5.35e-05 ± 1e-05 | 5.01e-05 ± 5.6e-06 |  | 3.7e-05 ± 9e-06
5 | A15G C67A C71U | 0.000877 ± 0.00033 |  | 7.86e-05 ± 1.3e-05 | 0.000455 ± 0.00016 | 0.00139 ± 0.00024 |  | 0.000523 ± 0.00013
6 | C16A U56A | 0.0016 ± 0.00026 | 3.18 ± 0.89 | 2.51e-05 ± 9.6e-06 | 0.000618 ± 0.00011 | 0.00131 ± 0.0002 | 9.31e-05 ± 3e-05 | 0.000261 ± 7.2e-05
7 | A14U C50U C68A | 3.75e-05 ± 1.4e-05 |  |  |  | < 1e-05 |  | 
8 | A15C A64G | 0.00792 ± 0.0013 | 2.98 ± 0.66 | 0.000125 ± 1.6e-05 | 0.00387 ± 0.00068 | 0.00614 ± 0.00072 | 0.00037 ± 6.2e-05 | 0.00113 ± 0.00024
9 | A14C A48U | 5.62e-05 ± 5.4e-06 | 3.17 ± 1.2 |  |  | 4.26e-05 ± 7.7e-06 |  | 
10 | A15U U31G U47A | 0.000799 ± 0.00019 | 5.26 ± 2.1 |  | 0.000221 ± 5.7e-05 | 0.000537 ± 8.1e-05 |  | 0.000105 ± 2.5e-05
11 | A14G A33U | 0.000136 ± 9.7e-06 | 8.71 ± 1.3 | < 1e-05 | 3.08e-05 ± 1e-05 | 7.29e-05 ± 7e-06 |  | 
12 | A15C C68U | 0.00105 ± 0.00025 | 2.39 ± 0.86 |  | 0.000847 ± 0.00011 | 0.000796 ± 8.8e-05 | 6.98e-05 ± 8.8e-06 | 0.000191 ± 2.7e-05
13 | A15U U49C | < 1e-05 |  | < 1e-05 |  | < 1e-05 |  | < 1e-05
14 | G13U C16U | 0.00286 ± 0.00057 | 3.43 ± 1 | 4.83e-05 ± 1.1e-05 | 0.00139 ± 0.00026 | 0.0021 ± 0.0003 | 0.000115 ± 2.9e-05 | 0.0004 ± 6.9e-05
15 | G13U C16A | 0.000283 ± 1.2e-05 | 4.34 ± 0.37 |  | 0.0001 ± 2.2e-05 | 0.000198 ± 2.6e-05 |  | 3.79e-05 ± 1.2e-05
16 | G13U C16G | 0.000981 ± 0.00012 | 5.17 ± 0.95 |  | 0.000305 ± 6e-05 | 0.000653 ± 0.0001 |  | 0.000112 ± 1.7e-05
17 | A14C C71A | 0.00106 ± 0.00051 |  | 3.61e-05 ± 1.7e-05 | 0.000353 ± 5.6e-05 | 0.000984 ± 0.00013 | 0.000121 ± 3.2e-05 | 0.000194 ± 3.2e-05
18 | A15C U30C | 0.000215 ± 7.8e-05 |  |  | 8.21e-05 ± 1.5e-05 | 0.000177 ± 2.6e-05 |  | 8.27e-05 ± 2.3e-05
19 | C16A U47G | 0.000198 ± 3e-05 | 0.631 ± 0.23 |  | 0.000184 ± 2.7e-05 | 0.000186 ± 2.3e-05 | 6.15e-05 ± 1.2e-05 | 9.31e-05 ± 7.8e-06
20 | A14G G40C | 0.0146 ± 0.0059 |  | 0.000285 ± 5.8e-05 | 0.00549 ± 0.00094 | 0.0168 ± 0.0032 | 0.000739 ± 0.0001 | 0.00301 ± 0.00036
21 | A14U C50U C58U G60U | < 1e-05 |  | < 1e-05 |  |  |  | < 1e-05
22 | A14C A33C | < 1e-05 |  | < 1e-05 |  |  |  | < 1e-05
23 | A14G G32C C70U | 0.000668 ± 0.00026 |  |  | 9.2e-05 ± 3.3e-05 | 0.000239 ± 4.4e-05 |  | 
24 | G13U | 0.00254 ± 0.00046 | 3.67 ± 0.84 | 3.52e-05 ± 1.3e-06 | 0.00118 ± 5e-05 | 0.00186 ± 5.8e-05 | 0.000104 ± 3.4e-06 | 0.000355 ± 7.3e-06
25 | A15U A48U | 0.000133 ± 4.2e-05 |  |  |  | 4.87e-05 ± 9.2e-06 | < 1e-05 | 
26 | A14U C50A U54G G62A C68U | 3.85e-05 ± 1.7e-05 |  |  |  |  |  | 7.62e-05 ± 2.5e-05
27 | A14G U46C | 0.0067 ± 0.0025 |  | 0.000504 ± 0.00011 | 0.00744 ± 0.0013 | 0.00545 ± 0.002 |  | 0.00207 ± 0.00084
28 | A14G U46G | 0.0115 ± 0.0033 | 0.997 ± 0.36 | 0.000421 ± 7.1e-05 | 0.0199 ± 0.0079 | 0.00927 ± 0.0027 | 0.00247 ± 0.001 | 0.00524 ± 0.0017
29 | A15U U45C | 0.000662 ± 6.5e-05 | 5.87 ± 1 |  | 0.000187 ± 4.3e-05 | 0.000419 ± 4.9e-05 |  | 6.91e-05 ± 1.5e-05
30 | A15U U45G | 0.000918 ± 0.00015 | 2.15 ± 0.56 |  | 0.000552 ± 8.4e-05 | 0.000705 ± 9.6e-05 | 5.29e-05 ± 1e-05 | 0.000248 ± 3.2e-05
